Format in all cases: cell-based, human
The subject of one series is Huh7 cells. Description: EPO expression (ELISA of medium) from PB1-MinTK in Huh7 cells with CAR-containing plasmid, induction by CITCO. The source says: • Huh7 cells which are a human liver cell line • DPBS: without CaCl2, without MgCl2 (Gibco, 14190-094) • DMEM (Sigma, D6546) • FBS (Sigma, F9665) • Pen-Strep (Sigma, P4333) • Promega Fugene-HD (E2311) • TCPOBOP (Sigma, T2320) • CITCO (Cayman Chemicals Company, 16027) • pcDNA6 plasmid which contains the β-galactosidase gene used as internal control for transfection efficiency (Thermofisher, V22020) • mouse CAR expression plasmid from Jouan et al, 2016 (BioCat GmbH, EX-Z4288-M51-10-GC). This was used as Huh7 is CAR deficient. • β-galactosidase substrate solution (Thermofisher, 75707/75710) • Pierce BCA kit (23225) • LARII (Dual Luciferase Reporter 1000 assay system, Promega, E1980) • EPO ELISA kit (Abcam, ab119522) Method: Day 1 • Cells were seeded onto a 48 well plate at a density of 25,000 cells/300 μl Day 2 • On the day of transfection, DNA to be transfected (CAR plasmid/PB1-MinTK operably linked with luciferase or EPO/pcDNA6 plasmid for internal control) was diluted to a 100 ng/μl stock solution. Per 48 Well Transfection: • 45 ng of DNA (15 ng of each plasmid, pcDNA6, CAR and test plasmid) was mixed with 4.1 μl of Optimem medium. • 0.5 μl of Fusion HD was mixed with 4 μl of Optimem medium. • These 2 solutions were mixed and incubated at room temperature for 15 minutes. • The final solution was then added to the well drop wise. • 3 hrs after transfection, the inducer TCPOBOP was added to the appropriate wells at the indicated concentration. Day 3 • 24 hrs after induction the media was removed from the cells. • The cells were washed once in 300 μl of DPBS • Cells were lysed using 100 μl of passive lysis buffer and incubation with rocking for 15 minutes • The cell debris was pelleted by centrifugation of the plate at max speed in a benchtop centrifuge for 1 min • For luciferase, 10 μl sample was transferred into white 96-well plate and luminescence measured by injection of 50 μl of LARII substrate. • β-galactosidase activity was measured as per manufacturer's instructions (Mammalian β-Galactosidase Assay Kit, 75707/75710, Thermo Scientific) using 25 μl of lysate. 25 μl of lysate was transferred into a microplate well and mixed with 25 μl of β-galactosidase Assay Reagent, equilibrated to room temperature. The mixture was incubated at 37° C. for 30 min and absorbance measured at 405 nm. • Protein concentration was measured as per manufacturer's instructions (Pierce™ BCA Protein Assay Kit, 23225/23227, Thermo Scientific) using 25 μl of lysate. 25 μl of lysate was transferred into a microplate well and mixed with 200 μl of working solution. The mixture was incubated at 37° C. for 30 min, cooled to room temperature and then absorbance measured around 562 nm. The protein concentration was calculated with respect to protein standard curve prepared from assaying standards with known protein concentration.
Transfections with PB1-MinTk-EPO were performed as described above with the exception that EPO is secreted into the medium. Therefore, medium was collected, and EPO concentration measured as per manufacturer's instructions (ab119522 Erythropoietin (EPO) Human ELISA Kit, Abcam) using an ELISA assay. 50 μl of medium was transferred to a pre-washed microplate wells and mixed with 50 μl of 1× Biotin Conjugated Antibody. The mixture was incubated at room temperature for 1 hour. The wells were washed, 100 μl of Streptavadin-HRP was added and the plate was incubated at room temperature for 15 minutes. The wells were washed and then 100 μl of TMB Substrate Solution. The mixture was incubated at room temperature for 10 minutes. The enzyme reaction was stopped by addition of 100 μl of Stop Solution and absorbance was read at 450 nm. The EPO concentration was calculated with respect to EPO standard curve prepared from assaying standards with known EPO concentration.
The PB1-MinkTK promoter was then used to drive expression of the protein EPO, which is of therapeutic interest. […]

In series [1] the test system is Huh7 and ARE primary cells. Description: Effect of AAV ITRs: pAAV constructs transfected into Huh7 and ARE primary cells, compared with pGL4.10. To be noted: mean of 3 biological replicates. The source says:
Following from Example 3, it was decided to take PB1-MinTK and PB1-2-MinTk forward for in vivo studies. To facilitate this the two aforementioned constructs were cloned into pAAV vector (Takara, Clontech) to allow for the preparation of AAV viruses. The inserts where cloned using restriction digest of the pAAV plasmid and PCR amplification of the original pGL4.10 constructs.
We investigated the effect of the Inverted Terminal Repeats (ITRs) on the activity of the promoters. This was done as we have observed interference from the AAV ITRs in other projects. To this end, the pAAV-PB1-MinTk and pAAV-PB1-2-MinTk were transfected into Huh7 and ARE primary cells as previously described and their activity assessed.

A further series concerns AXOL ARE hepatocytes. Put plainly: Luciferase expression from pAAV constructs in AXOL ARE hepatocytes without CITCO, with CITCO and after CITCO withdrawal. The following applies: pAAV vector. Here is the method:
Luciferase expression from the PB1-MinTK and PB1-2-MinTK constructs in the pAAV vector in AXOL ARE hepatocytes is inducible by CITCO (1 μM) but reduces after removing CITCO as shown in FIG. 5.

B1: PB1-MinTK: promoter: single mouse PBREM element and MinTK minimal promoter, SEQ ID NO: 7 (nucleic acid)
DNA: TCTGTACTTTCCTGACCTTGGCACAGTGCCACCATCAACTTGCCTGACACCGATCCGGCCCCGCCCAGCGTCTTGTCATTGGCGAATTCGAACACGCAGATGCAGTCGGGGCGGCGCGGTCCGAGGTCCACTTCGCATATTAAGGTGACGCGTGTGGCCTCGAACACCGAGCGACCCTGCAGCGACCCGCTTAACAGCGTCAACAGCGTGCCGCAGATCTCGAGGAGCTTGGCGAGATTTTCAGGAGCTAAGGAAGCTAAAC
modifications: PB1-MinTK
Take B1: the “overall EPO expression level relative to CMV-IE” value with Huh7 cells (CITCO induced (data not shown)) is on record as “around 22%”. In the series on Huh7 cells (addition of up to 2 μM CITCO), the EPO production entry is on record as “marked increase in the production of EPO”. The EPO expression result in the series with Huh7 cells (highest concentration of CITCO (3 μM)) was “returns towards baseline activity”; in the series with Huh7 cells (no addition of the drug (DMSO)), “very little expression of EPO”. Moreover, the “induction of luciferase expression across pGL4.10 and pAAV vectors and cell types” value in series [1] was “comparable across vectors and cell types”. For the same molecule, in the series on AXOL ARE hepatocytes (CITCO (1 μM)), the “luciferase expression with CITCO” value is reported as “inducible”. Also, the “activity of the promoter after removal of CITCO” value with AXOL ARE hepatocytes (CITCO withdrawal) is “almost baseline levels”.

These data come from patent US12472269B2, “Liver-specific inducible promoters and methods of use thereof” (ASKBIO INC., priority 2019, dated 2025).
